{"source": "patent US20230295348A1", "about": "(NOVIMMUNE, published 2023)", "assay_in_all_cases": "direct ELISA, biotinylated recombinant protein on streptavidin plates", "key": {"human recombinant IL-2Rβ": {"target": "T1, human recombinant IL-2Rβ (human, UniProt P14784 27-239, limits assumed)", "T1 construct": "Biotinylated and captured on streptavidin plates in the ELISA; also called IL-2Rb; IL2Rb", "T1 sequence (looked up)": "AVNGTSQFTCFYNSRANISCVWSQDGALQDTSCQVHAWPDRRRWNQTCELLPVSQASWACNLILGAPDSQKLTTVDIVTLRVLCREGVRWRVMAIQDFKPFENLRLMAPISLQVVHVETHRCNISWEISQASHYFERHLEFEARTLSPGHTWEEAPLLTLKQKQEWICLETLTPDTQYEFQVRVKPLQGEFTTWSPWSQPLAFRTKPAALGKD"}, "human recombinant HER2": {"target": "T2, human recombinant HER2 (human, UniProt P04626 23-652)", "T2 construct": "Biotinylated and captured on streptavidin plates in the ELISA; also called human epidermal growth factor receptor 2"}, "human recombinant IL-2Rγ": {"target": "T3, human recombinant IL-2Rγ (human, UniProt P31785 23-262, limits assumed)", "T3 construct": "Biotinylated and captured on streptavidin plates in the ELISA; also called IL-2Rg; IL2Rg", "T3 sequence (looked up)": "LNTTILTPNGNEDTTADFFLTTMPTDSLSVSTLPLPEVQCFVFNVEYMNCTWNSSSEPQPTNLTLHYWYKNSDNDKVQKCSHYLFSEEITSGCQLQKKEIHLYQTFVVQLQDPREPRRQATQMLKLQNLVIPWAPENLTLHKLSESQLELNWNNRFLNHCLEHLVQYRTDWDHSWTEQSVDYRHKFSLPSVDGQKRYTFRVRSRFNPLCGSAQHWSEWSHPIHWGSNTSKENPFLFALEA"}, "[1]": {"target": "T4, recombinant Human carcinoembryonic antigen (human, UniProt P06731 35-685, limits assumed)", "T4 construct": "Irrelevant control protein of the ELISA, biotinylated and captured on streptavidin plates; also called irrelevant protein; CEA", "T4 sequence (looked up)": "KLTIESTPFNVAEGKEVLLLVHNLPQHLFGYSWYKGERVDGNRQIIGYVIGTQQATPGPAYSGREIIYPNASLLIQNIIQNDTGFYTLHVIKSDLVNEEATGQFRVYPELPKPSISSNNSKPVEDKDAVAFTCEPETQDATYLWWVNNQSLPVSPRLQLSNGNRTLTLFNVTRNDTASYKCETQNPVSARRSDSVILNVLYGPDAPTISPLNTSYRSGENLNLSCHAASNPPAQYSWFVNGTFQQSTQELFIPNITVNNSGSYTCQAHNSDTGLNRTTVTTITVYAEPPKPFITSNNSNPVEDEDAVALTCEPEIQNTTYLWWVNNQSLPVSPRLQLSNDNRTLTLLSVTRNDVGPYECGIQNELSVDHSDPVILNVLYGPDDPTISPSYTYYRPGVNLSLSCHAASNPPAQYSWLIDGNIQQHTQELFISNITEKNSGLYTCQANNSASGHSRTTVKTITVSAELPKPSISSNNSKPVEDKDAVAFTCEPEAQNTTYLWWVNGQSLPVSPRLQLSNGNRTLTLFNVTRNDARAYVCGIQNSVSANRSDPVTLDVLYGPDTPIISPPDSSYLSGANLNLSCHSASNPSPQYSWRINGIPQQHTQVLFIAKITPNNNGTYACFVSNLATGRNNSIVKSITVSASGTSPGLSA"}}, "data": [{"binder": "AL1N2-28 (bispecific antibody, human IgG1, kappa, lambda, L234A L235A, κλ-body: common heavy chain, kappa anti-IL2Rβ light chain (AL1), lambda anti-HER2 light chain (N2-28); also called AL1N2-28/N) heavy: not shown light 1: not shown light 2: SYVLTQPPSVSVAPGKTARITCGGNTIGSTVVHWYQQKPGQAPVLVIYFDDARPSGIPERFSGSNSGNTATLTISRVEAGDEADYYCQVWDSFGLSLAPVFGGGTKLTVLGQPKAAPSVTLFPPSSEELQANKATLVCLISDFYPGAVTVAWKADSSPVKAGVETTTPSKQSNNKYAASSYLSLTPEQWKSHRSYSCQVTHEGSTVEKTVAPTECS", "values": [{"measurement": "binding result", "setting": "human recombinant IL-2Rβ", "result": "binds"}, {"measurement": "binding result", "setting": "human recombinant HER2", "result": "binds"}]}, {"binder": "AL5N2-28 (bispecific antibody, human IgG1, kappa, lambda, L234A L235A, κλ-body: common heavy chain, kappa anti-IL2Rβ light chain (AL5), lambda anti-HER2 light chain (N2-28); also called AL5N2-28/N) heavy: not shown light 1: not shown light 2: SYVLTQPPSVSVAPGKTARITCGGNTIGSTVVHWYQQKPGQAPVLVIYFDDARPSGIPERFSGSNSGNTATLTISRVEAGDEADYYCQVWDSFGLSLAPVFGGGTKLTVLGQPKAAPSVTLFPPSSEELQANKATLVCLISDFYPGAVTVAWKADSSPVKAGVETTTPSKQSNNKYAASSYLSLTPEQWKSHRSYSCQVTHEGSTVEKTVAPTECS", "values": [{"measurement": "binding result", "setting": "human recombinant IL-2Rβ", "result": "binds"}, {"measurement": "binding result", "setting": "human recombinant HER2", "result": "binds"}]}, {"binder": "AL2N2-28 (bispecific antibody, human IgG1, kappa, lambda, L234A L235A, κλ-body: common heavy chain, kappa anti-IL2Rβ light chain (AL2), lambda anti-HER2 light chain (N2-28); also called AL2N2-28/N) heavy: not shown light 1: not shown light 2: SYVLTQPPSVSVAPGKTARITCGGNTIGSTVVHWYQQKPGQAPVLVIYFDDARPSGIPERFSGSNSGNTATLTISRVEAGDEADYYCQVWDSFGLSLAPVFGGGTKLTVLGQPKAAPSVTLFPPSSEELQANKATLVCLISDFYPGAVTVAWKADSSPVKAGVETTTPSKQSNNKYAASSYLSLTPEQWKSHRSYSCQVTHEGSTVEKTVAPTECS", "values": [{"measurement": "binding result", "setting": "human recombinant IL-2Rβ", "result": "binds"}, {"measurement": "binding result", "setting": "human recombinant HER2", "result": "binds"}]}, {"binder": "AL3N2-28 (bispecific antibody, human IgG1, kappa, lambda, L234A L235A, κλ-body: common heavy chain, kappa anti-IL2Rβ light chain (AL3), lambda anti-HER2 light chain (N2-28); also called AL3N2-28/N) heavy: not shown light 1: not shown light 2: SYVLTQPPSVSVAPGKTARITCGGNTIGSTVVHWYQQKPGQAPVLVIYFDDARPSGIPERFSGSNSGNTATLTISRVEAGDEADYYCQVWDSFGLSLAPVFGGGTKLTVLGQPKAAPSVTLFPPSSEELQANKATLVCLISDFYPGAVTVAWKADSSPVKAGVETTTPSKQSNNKYAASSYLSLTPEQWKSHRSYSCQVTHEGSTVEKTVAPTECS", "values": [{"measurement": "binding result", "setting": "human recombinant IL-2Rβ", "result": "binds"}, {"measurement": "binding result", "setting": "human recombinant HER2", "result": "binds"}]}, {"binder": "AL4N2-28 (bispecific antibody, human IgG1, kappa, lambda, L234A L235A, κλ-body: common heavy chain, kappa anti-IL2Rβ light chain (AL4), lambda anti-HER2 light chain (N2-28); also called AL4N2-28/N) heavy: not shown light 1: DIQMTQSPSSLSASVGDRVTITCRASQSIDEYLNWYQQKPGKAPKLLIYEASKLQSGVPSRFSGSGSGTDFTLTISSLQPEDFATYYCQQDGAMDTYATFGQGTKVEIKRTVAAPSVFIFPPSDEQLKSGTASVVCLLNNFYPREAKVQWKVDNALQSGNSQESVTEQDSKDSTYSLSSTLTLSKADYEKHKVYACEVTHQGLSSPVTKSFNRGEC light 2: SYVLTQPPSVSVAPGKTARITCGGNTIGSTVVHWYQQKPGQAPVLVIYFDDARPSGIPERFSGSNSGNTATLTISRVEAGDEADYYCQVWDSFGLSLAPVFGGGTKLTVLGQPKAAPSVTLFPPSSEELQANKATLVCLISDFYPGAVTVAWKADSSPVKAGVETTTPSKQSNNKYAASSYLSLTPEQWKSHRSYSCQVTHEGSTVEKTVAPTECS", "values": [{"measurement": "binding result", "setting": "human recombinant IL-2Rβ", "result": "binds"}, {"measurement": "binding result", "setting": "human recombinant HER2", "result": "binds"}]}, {"binder": "P1A3×P2C4 (bispecific antibody, V domains shown, anti-IL-2Rβ (P2C4) in the knob arm; also called anti-IL-2Rβ×anti-IL-2Rγ bsAb; IL-2Rβ×IL-2Rγ KiH bsAb) VH 1: QVQLQQWGAGLLKPSETLSLTCAVYGGSFSGYYWSWIRQPPGKGLEWIGEINHSGSTNYNPSLKSRATISVDTSKNQFSLKLSSVTAADTAVYYCATSPGGYSGGYFQHWGQGTLVTVSS VL 1: not shown VH 2: EVQLVQSGAEVKKPGSSVKVSCKASGYTFTNYYMHWVRQAPGQGLEWMGAIMPSRGGTSYPQKFQGRVTMTGDTSTSTVYMELSSLRSEDTAVYYCARGEYYYDSSGYYYWGQGTLVTVSS VL 2: QSALTQPASVSGSPGQSIAISCTGTSSDIGHYDFVSWYQQHPGTAPKLIIYDINNRPSGISNRFSGSKSDNMASLTISGLQPEDEADYYCSAYTSSDTLVFGGGTKLT", "values": [{"measurement": "binding result", "setting": "human recombinant IL-2Rβ", "result": "binds"}, {"measurement": "binding result", "setting": "human recombinant IL-2Rγ", "result": "binds"}, {"measurement": "binding result", "setting": "[1]", "result": "no binding"}]}, {"binder": "AL4O38 (bispecific antibody, human IgG1, kappa, lambda, L234A L235A, κλ-body: common heavy chain, kappa anti-IL2Rβ light chain (AL4), lambda anti-MSLN light chain (O38); also called AL4O38/N) heavy: not shown light 1: DIQMTQSPSSLSASVGDRVTITCRASQSIDEYLNWYQQKPGKAPKLLIYEASKLQSGVPSRFSGSGSGTDFTLTISSLQPEDFATYYCQQDGAMDTYATFGQGTKVEIKRTVAAPSVFIFPPSDEQLKSGTASVVCLLNNFYPREAKVQWKVDNALQSGNSQESVTEQDSKDSTYSLSSTLTLSKADYEKHKVYACEVTHQGLSSPVTKSFNRGEC light 2: QPVLTQPASLSASPGASASLTCTLRSGINVRDYRIFWYQQKPGSPPQYLLRYKSASDKQQGSGVPSRFSGSKDASANAGILLISGLQSEDEADYYCMIWHHDSEGHAFVFGGGTKLTVLGQPKAAPSVTLFPPSSEELQANKATLVCLISDFYPGAVTVAWKADSSPVKAGVETTTPSKQSNNKYAASSYLSLTPEQWKSHRSYSCQVTHEGSTVEKTVAPTECS", "values": [{"measurement": "binding result", "setting": "human recombinant IL-2Rβ", "result": "binds"}]}, {"binder": "AL4O41 (bispecific antibody, human IgG1, kappa, lambda, L234A L235A, κλ-body: common heavy chain, kappa anti-IL2Rβ light chain (AL4), lambda anti-MSLN light chain (O41); also called AL4O41/N) heavy: not shown light 1: DIQMTQSPSSLSASVGDRVTITCRASQSIDEYLNWYQQKPGKAPKLLIYEASKLQSGVPSRFSGSGSGTDFTLTISSLQPEDFATYYCQQDGAMDTYATFGQGTKVEIKRTVAAPSVFIFPPSDEQLKSGTASVVCLLNNFYPREAKVQWKVDNALQSGNSQESVTEQDSKDSTYSLSSTLTLSKADYEKHKVYACEVTHQGLSSPVTKSFNRGEC light 2: SYVLTQPPSVSVAPGKTARITCGGNKIGHRAVHWYQQKPGQAPVLVIYYTYERPSGIPERFSGSNSGNTATLTISRVEAGDEADYYCQVWDWYSEGGVVFGGGTKLTVLGQPKAAPSVTLFPPSSEELQANKATLVCLISDFYPGAVTVAWKADSSPVKAGVETTTPSKQSNNKYAASSYLSLTPEQWKSHRSYSCQVTHEGSTVEKTVAPTECS", "values": [{"measurement": "binding result", "setting": "human recombinant IL-2Rβ", "result": "binds"}]}]}
